Source: patent US20250262210A1 (TRUSTEES OF COLUMBIA UNIVERSITY IN THE CITY OF NEW YORK, published 2025)

T1: LZTR1-FLAG (human, UniProt Q8N653 1-840)
T1 construct: Expressed in HEK 293T, HeLa or U87 cells; used as cell lysate; also called LZTR1 wild type-FLAG; LZTR1 WT; not shown: FLAG tag at the C-terminus
T1 sequence (looked up): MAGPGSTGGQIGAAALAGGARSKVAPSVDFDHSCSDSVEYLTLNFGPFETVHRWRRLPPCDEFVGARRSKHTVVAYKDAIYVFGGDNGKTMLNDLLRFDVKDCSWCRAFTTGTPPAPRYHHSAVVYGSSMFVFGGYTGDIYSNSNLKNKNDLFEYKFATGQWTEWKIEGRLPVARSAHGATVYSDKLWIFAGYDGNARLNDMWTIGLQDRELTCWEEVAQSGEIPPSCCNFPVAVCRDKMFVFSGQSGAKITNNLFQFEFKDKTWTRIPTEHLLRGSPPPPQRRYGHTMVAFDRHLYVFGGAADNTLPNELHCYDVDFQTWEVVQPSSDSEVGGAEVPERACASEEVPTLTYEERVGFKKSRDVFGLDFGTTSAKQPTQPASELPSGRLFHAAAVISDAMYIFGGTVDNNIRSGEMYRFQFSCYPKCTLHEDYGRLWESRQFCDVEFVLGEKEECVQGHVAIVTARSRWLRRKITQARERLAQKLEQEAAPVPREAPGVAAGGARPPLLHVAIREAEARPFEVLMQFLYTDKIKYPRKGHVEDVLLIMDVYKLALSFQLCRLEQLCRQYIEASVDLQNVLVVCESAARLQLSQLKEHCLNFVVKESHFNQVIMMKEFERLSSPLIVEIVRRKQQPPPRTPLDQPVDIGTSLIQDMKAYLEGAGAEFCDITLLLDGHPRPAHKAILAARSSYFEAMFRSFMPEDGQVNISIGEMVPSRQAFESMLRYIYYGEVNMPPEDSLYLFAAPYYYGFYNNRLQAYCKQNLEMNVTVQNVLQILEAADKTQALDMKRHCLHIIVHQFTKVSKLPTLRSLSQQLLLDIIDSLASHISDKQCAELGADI

T2: LZTR1 R810W-FLAG (human, UniProt Q8N653 1-840)
T2 construct: Stably expressed in U87 cells by lentivirus; also called LZTR1-FLAG-R810W; LZTR1 RW; not shown: FLAG tag
T2 sequence (looked up): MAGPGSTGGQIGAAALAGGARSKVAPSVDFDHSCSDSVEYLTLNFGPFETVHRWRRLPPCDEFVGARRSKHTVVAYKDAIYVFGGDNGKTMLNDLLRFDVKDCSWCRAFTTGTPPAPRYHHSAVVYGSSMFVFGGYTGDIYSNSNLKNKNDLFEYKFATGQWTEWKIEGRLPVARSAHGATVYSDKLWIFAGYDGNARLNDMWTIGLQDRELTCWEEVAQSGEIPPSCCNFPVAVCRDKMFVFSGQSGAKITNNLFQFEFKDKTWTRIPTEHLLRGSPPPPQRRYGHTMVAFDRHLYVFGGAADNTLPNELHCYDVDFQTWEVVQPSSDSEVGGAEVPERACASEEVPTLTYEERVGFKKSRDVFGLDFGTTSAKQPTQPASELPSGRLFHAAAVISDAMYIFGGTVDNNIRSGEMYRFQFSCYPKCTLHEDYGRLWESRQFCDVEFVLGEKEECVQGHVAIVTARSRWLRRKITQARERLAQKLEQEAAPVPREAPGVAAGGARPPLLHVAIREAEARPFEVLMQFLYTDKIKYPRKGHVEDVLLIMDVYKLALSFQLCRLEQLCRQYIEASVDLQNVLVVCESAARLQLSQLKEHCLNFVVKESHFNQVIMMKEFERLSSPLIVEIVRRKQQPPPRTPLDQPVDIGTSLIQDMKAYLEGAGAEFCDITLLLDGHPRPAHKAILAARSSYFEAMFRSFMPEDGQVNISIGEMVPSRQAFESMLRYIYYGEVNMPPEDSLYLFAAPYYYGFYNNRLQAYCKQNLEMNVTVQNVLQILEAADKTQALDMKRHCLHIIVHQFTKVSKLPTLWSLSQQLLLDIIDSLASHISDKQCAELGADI


How the values were obtained:
[1] = target: T1, LZTR1-FLAG; assay: IP/MS, LZTR1 wild type-FLAG, U87
In short: (§1)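 Extracted peptides in 3% acetonitrile/0.1% formic acid ran on a 50 cm C18 column into an Orbitrap Fusion, with MaxQuant identification and spectral counting.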

[2] = target: T2, LZTR1 R810W-FLAG; assay: IP/MS, LZTR1 R810W-FLAG, U87
In short: as §1

Row | binding result [1] | binding result [2] | Binder
1 | binds | binds | KLHL26 (other, human, UniProt Q53HC5 2-615, looked up) AESGGSSGGAGGGGAFGAGPGPERPNSTADKNGALKCTFSAPSHSTSLLQGLATLRAQGQLLDVVLTINREAFPAHKVVLAACSDYFRAMFTGGMREASQDVIELKGVSARGLRHIIDFAYSAEVTLDLDCVQDVLGAAVFLQMLPVVELCEEFLKAAMSVETCLNIGQMATTFSLASLRESVDAFTFRHFLQIAEEEDFLRLPLERLVFFLQSNRLQSCAEIDLFRAAVRWLQHDPARRPRASHVLCHIRFPLMQSSELVDSVQTLDIMVEDVLCRQYLLEAFNYQVLPFRQHEMQSPRTAVRSDVPSLVTFGGTPYTDSDRSVSSKVYQLPEPGARHFRELTEMEVGCSHTCVAVLDNFVYVAGGQHLQYRSGEGAVDACYRYDPHLNRWLRLQAMQESRIQFQLNVLCGMVYATGGRNRAGSLASVERYCPRRNEWGYACSLKRRTWGHAGAASGGRLYISGGYGISVEDKKALHCYDPVADQWEFKAPMSEPRVLHAMVGAGGRIYALGGRMDHVDRCFDVLAVEYYVPETDQWTSVSPMRAGQSEAGCCLLERKIYIVGGYNWRLNNVTGIVQVYNTDTDEWERDLHFPESFAGIACAPVLLPRAGTRR
2 | binds | binds | NDC80 (other, human, UniProt O14777 1-642, looked up) MKRSSVSSGGAGRLSMQELRSQDVNKQGLYTPQTKEKPTFGKLSINKPTSERKVSLFGKRTSGHGSRNSQLGIFSSSEKIKDPRPLNDKAFIQQCIRQLCEFLTENGYAHNVSMKSLQAPSVKDFLKIFTFLYGFLCPSYELPDTKFEEEVPRIFKDLGYPFALSKSSMYTVGAPHTWPHIVAALVWLIDCIKIHTAMKESSPLFDDGQPWGEETEDGIMHNKLFLDYTIKCYESFMSGADSFDEMNAELQSKLKDLFNVDAFKLESLEAKNRALNEQIARLEQEREKEPNRLESLRKLKASLQGDVQKYQAYMSNLESHSAILDQKLNGLNEEIARVELECETIKQENTRLQNIIDNQKYSVADIERINHERNELQQTINKLTKDLEAEQQKLWNEELKYARGKEAIETQLAEYHKLARKLKLIPKGAENSKGYDFEIKFNPEAGANCLVKYRAQVYVPLKELLNETEEEINKALNKKMGLEDTLEQLNAMITESKRSVRTLKEEVQKLDDLYQQKIKEAEEEDEKCASELESLEKHKHLLESTVNQGLSEAMNELDAVQREYQLVVQTTTEERRKVGNNLQRLLEMVATHVGSVEKHLEEQIAKVDREYEECMSEDLSENIKEIRDKYEKKATLIKSSEE
3 | binds | binds | MELK (other, human, UniProt Q14680 1-651, looked up) MKDYDELLKYYELHETIGTGGFAKVKLACHILTGEMVAIKIMDKNTLGSDLPRIKTEIEALKNLRHQHICQLYHVLETANKIFMVLEYCPGGELFDYIISQDRLSEEETRVVFRQIVSAVAYVHSQGYAHRDLKPENLLFDEYHKLKLIDFGLCAKPKGNKDYHLQTCCGSLAYAAPELIQGKSYLGSEADVWSMGILLYVLMCGFLPFDDDNVMALYKKIMRGKYDVPKWLSPSSILLLQQMLQVDPKKRISMKNLLNHPWIMQDYNYPVEWQSKNPFIHLDDDCVTELSVHHRNNRQTMEDLISLWQYDHLTATYLLLLAKKARGKPVRLRLSSFSCGQASATPFTDIKSNNWSLEDVTASDKNYVAGLIDYDWCEDDLSTGAATPRTSQFTKYWTESNGVESKSLTPALCRTPANKLKNKENVYTPKSAVKNEEYFMFPEPKTPVNKNQHKREILTTPNRYTTPSKARNQCLKETPIKIPVNSTGTDKLMTGVISPERRCRSVELDLNQAHMEETPKRKGAKVFGSLERGLDKVITVLTRSKRKGSARDGPRRLKLHYNVTTTRLVNPDQLLNEIMSILPKKHVDFVQKGYTLKCQTQSDFGKVTMQFELEVCQLQKPDVVGIRRQRLKGDAWVYKRLVEDILSSCKV
4 | binds | binds | MALT1 (other, human, UniProt Q9UDY8 2-824, looked up) SLLGDPLQALPPSAAPTGPLLAPPAGATLNRLREPLLRRLSELLDQAPEGRGWRRLAELAGSRGRLRLSCLDLEQCSLKVLEPEGSPSLCLLKLMGEKGCTVTELSDFLQAMEHTEVLQLLSPPGIKITVNPESKAVLAGQFVKLCCRATGHPFVQYQWFKMNKEIPNGNTSELIFNAVHVKDAGFYVCRVNNNFTFEFSQWSQLDVCDIPESFQRSVDGVSESKLQICVEPTSQKLMPGSTLVLQCVAVGSPIPHYQWFKNELPLTHETKKLYMVPYVDLEHQGTYWCHVYNDRDSQDSKKVEIIIGRTDEAVECTEDELNNLGHPDNKEQTTDQPLAKDKVALLIGNMNYREHPKLKAPLVDVYELTNLLRQLDFKVVSLLDLTEYEMRNAVDEFLLLLDKGVYGLLYYAGHGYENFGNSFMVPVDAPNPYRSENCLCVQNILKLMQEKETGLNVFLLDMCRKRNDYDDTIPILDALKVTANIVFGYATCQGAEAFEIQHSGLANGIFMKFLKDRLLEDKKITVLLDEVAEDMGKCHLTKGKQALEIRSSLSEKRALTDPIQGTEYSAESLVRNLQWAKAHELPESMCLKFDCGVQIQLGFAAEFSNVMIIYTSIVYKPPEIIMCDAYVTDFPLDLDIDPKDANKGTPEETGSYLVSKDLPKHCLYTRLSSLQKLKEHLVFTVCLSYQYSGLEDTVEDKQEVNVGKPLIAKLDMHRGLGRKTCFQTCLMSNGPYQSSAATSGGAGHYHSLQDPFHGVYHSHPGNPSNVTPADSCHCSRTPDAFISSFAHHASCHFSRSNVPVETTDEIPFSFSDRLRISEK
5 | binds | binds | MCMBP (other, human, UniProt Q9BTE3 1-642, looked up) MPCGEDWLSHPLGIVQGFFAQNGVNPDWEKKVIEYFKEKLKENNAPKWVPSLNEVPLHYLKPNSFVKFRCMIQDMFDPEFYMGVYETVNQNTKAHVLHFGKYRDVAECGPQQELDLNSPRNTTLERQTFYCVPVPGESTWVKEAYVNANQARVSPSTSYTPSRHKRSYEDDDDMDLQPNKQKDQHAGARQAGSVGGLQWCGEPKRLETEASTGQQLNSLNLSSPFDLNFPLPGEKGPACLVKVYEDWDCFKVNDILELYGILSVDPVLSILNNDERDASALLDPMECTDTAEEQRVHSPPASLVPRIHVILAQKLQHINPLLPACLNKEESKTCKFVSSFMSELSPVRAELLGFLTHALLGDSLAAEYLILHLISTVYTRRDVLPLGKFTVNLSGCPRNSTFTEHLYRIIQHLVPASFRLQMTIENMNHLKFIPHKDYTANRLVSGLLQLPSNTSLVIDETLLEQGQLDTPGVHNVTALSNLITWQKVDYDFSYHQMEFPCNINVFITSEGRSLLPADCQIHLQPQLIPPNMEEYMNSLLSAVLPSVLNKFRIYLTLLRFLEYSISDEITKAVEDDFVEMRKNDPQSITADDLHQLLVVARCLSLSAGQTTLSRERWLRAKQLESLRRTRLQQQKCVNGNEL
6 | binds | binds | MAEA (other, human, UniProt Q7L5Y9 1-396, looked up) MAVQESAAQLSMTLKVQEYPTLKVPYETLNKRFRAAQKNIDRETSHVTMVVAELEKTLSGCPAVDSVVSLLDGVVEKLSVLKRKAVESIQAEDESAKLCKRRIEHLKEHSSDQPAAASVWKRKRMDRMMVEHLLRCGYYNTAVKLARQSGIEDLVNIEMFLTAKEVEESLERRETATCLAWCHDNKSRLRKMKSCLEFSLRIQEFIELIRQNKRLDAVRHARKHFSQAEGSQLDEVRQAMGMLAFPPDTHISPYKDLLDPARWRMLIQQFRYDNYRLHQLGNNSVFTLTLQAGLSAIKTPQCYKEDGSSKSPDCPVCSRSLNKLAQPLPMAHCANSRLVCKISGDVMNENNPPMMLPNGYVYGYNSLLSIRQDDKVVCPRTKEVFHFSQAEKVYIM
